Data published in publication PMC10869471, “Pectin methylesterase 31 is transcriptionally repressed by ABI5 to negatively regulate ABA-mediated inhibition of seed germination”.

T1: His-ABI5 (UniProt Q9SJN0 1-442)
T1 sequence: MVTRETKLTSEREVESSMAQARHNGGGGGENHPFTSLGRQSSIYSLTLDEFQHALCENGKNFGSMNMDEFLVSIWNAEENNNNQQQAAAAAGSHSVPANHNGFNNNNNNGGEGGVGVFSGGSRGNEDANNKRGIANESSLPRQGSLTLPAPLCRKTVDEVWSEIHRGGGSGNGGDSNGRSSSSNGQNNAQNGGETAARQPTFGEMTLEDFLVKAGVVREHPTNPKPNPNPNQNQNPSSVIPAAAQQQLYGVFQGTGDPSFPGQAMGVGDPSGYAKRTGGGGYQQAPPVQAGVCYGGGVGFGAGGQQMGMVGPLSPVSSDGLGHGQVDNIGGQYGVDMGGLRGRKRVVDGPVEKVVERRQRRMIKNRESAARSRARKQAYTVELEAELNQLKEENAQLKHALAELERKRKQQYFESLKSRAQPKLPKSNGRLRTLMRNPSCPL

B1: proPME31 probe (50 bp) (dsDNA)
DNA 1: TTGAACAAAGAACTGTTACACGTAGAACCAAACAATATGATGAAAAGTAT
DNA 2: ATACTTTTCATCATATTGTTTGGTTCTACGTGTAACAGTTCTTTGTTCAA
B2: proPME31 mutated probe (mComp) (dsDNA)
DNA 1: TTGAACAAAGAACTGTTAAAAAAAGAACCAAACAATATGATGAAAAGTAT
DNA 2: ATACTTTTCATCATATTGTTTGGTTCTTTTTTTAACAGTTCTTTGTTCAA

How the values were obtained:
His-ABI5 [1] = target: T1, His-ABI5; assay: EMSA; suppressed by 50x and 100x unlabeled probe; Chemiluminescent EMSA Kit (Beyotime); binding buffer, salt, pH and temperature not stated (protein eluted in 100 mM HEPES, 500 mM imidazole, pH 7.5); details: protein: recombinant; tags: His (pET-30a); label: biotin; blunt
His-ABI5 [2] = target: T1, His-ABI5; assay: competition; 100x unlabeled mutated competitor against labeled N1; Chemiluminescent EMSA Kit (Beyotime); binding buffer, salt, pH and temperature not stated (protein eluted in 100 mM HEPES, 500 mM imidazole, pH 7.5); details: protein: recombinant; tags: His (pET-30a); blunt

Binder	binding result (His-ABI5 [1])	binding result (His-ABI5 [2])
B1	binds	
B2		no binding
